Assay results as given in paper PMC10341545, “Structural and Biochemical Investigation of Selected Pathogenic Mutants of the Human Dihydrolipoamide Dehydrogenase” (International Journal of Molecular Sciences, 2023).
Numbering of substitutions follows the chain as printed. Names may count otherwise.

B1: I318T-hLADH (enzyme, human, UniProt P09622 36-509, looked up)
chain: ADQPIDADVTVIGSGPGGYVAAIKAAQLGFKTVCIEKNETLGGTCLNVGCIPSKALLNNSHYYHMAHGKDFASRGIEMSEVRLNLDKMMEQKSTAVKALTGGIAHLFKQNKVVHVNGYGKITGKNQVTATKADGGTQVIDTKNILIATGSEVTPFPGITIDEDTIVSSTGALSLKKVPEKMVVIGAGVIGVELGSVWQRLGADVTAVEFLGHVGGVGIDMEISKNFQRILQKQGFKFKLNTKVTGATKKSDGKIDVSIEAASGGKAEVITCDVLLVCIGRRPFTKNLGLEELGIELDPRGRIPVNTRFQTKIPNIYATGDVVAGPMLAHKAEDEGIICVEGMAGGAVHIDYNCVPSVIYTHPEVAWVGKSEEQLKEEGIEYKVGKFPFAANSRAKTNADTDGMVKILGQKSTDRVLGAHILGPGAGEMVNEAALALEYGASCEDIARVCHAHPTLSEAFREANLAASFGKSINF
notes: Dihydrolipoamide dehydrogenase, human, pathogenic variant I318T; Clinically reported disease-causing variant; mutation verified by MS
B2: I358T-hLADH (enzyme, human, UniProt P09622 36-509, looked up)
chain: B1 chain with T318I, I358T
notes: Dihydrolipoamide dehydrogenase, human, pathogenic variant I358T; Clinically reported disease-causing variant; mutation verified by MS
B3: G194C-hLADH (enzyme, human, UniProt P09622 36-509, looked up)
chain: B1 chain with G194C, T318I
notes: Dihydrolipoamide dehydrogenase, human, pathogenic variant G194C; Clinically reported disease-causing variant
B4: G426E-hLADH (enzyme, human, UniProt P09622 36-509, looked up)
chain: B1 chain with T318I, G426E
notes: Dihydrolipoamide dehydrogenase, human, pathogenic variant G426E; Clinically reported disease-causing variant
B5: I445M-hLADH (enzyme, human, UniProt P09622 36-509, looked up)
chain: B1 chain with T318I, I445M
notes: Dihydrolipoamide dehydrogenase, human, pathogenic variant I445M; Clinically reported disease-causing variant
B6: K37E-hLADH (enzyme, human, UniProt P09622 36-509, looked up)
chain: B1 chain with K37E, T318I
notes: Dihydrolipoamide dehydrogenase, human, pathogenic variant K37E; Clinically reported disease-causing variant
B7: R447G-hLADH (enzyme, human, UniProt P09622 36-509, looked up)
chain: B1 chain with T318I, R447G
notes: Dihydrolipoamide dehydrogenase, human, pathogenic variant R447G; Clinically reported disease-causing variant
B8: I12T-hLADH (enzyme, human, UniProt P09622 36-509, looked up)
chain: B1 chain with I12T, T318I
notes: Dihydrolipoamide dehydrogenase, human, pathogenic variant I12T; Also expressed with an N-terminal Twin-Strep-tag to increase the yield; source: very low-expressing, eluted with contaminating proteins

Target: the molecule itself
Test: crystal structure; sitting drop; 0.2 M MgCl2, PEG 3350, 0.1 M Bis-Tris pH 6.7; space group C 1 2 1; two monomers (the homodimer) in the asymmetric unit

Binding result, binds:
B1
B2

Target: the molecule itself
Test: SEC; calibrated size-exclusion chromatography (cSEC); HiPrep 16/60 Sephacryl S-200 HR, 4 °C, 150 mM ammonium acetate, pH 6.80, 0.5 mL/min; 40–780 μg protein loaded; dimer to monomers

Binding result, binds:
B3
B4
B5
B6
B7
B8
